Three substances from patent US20260209311A1, “MODIFIED G PROTEIN COUPLED RECEPTOR AND USE THEREOF” (ALPHELIX BIOTECH CO., LTD., priority 2023, published 2026) can be followed below.

In general, Kd refers to a measure of binding affinity in units of concentration.

Assay [1] has as its target MC4R WT. In words: SPR; 1:1 kinetic, 25 C. In general terms: In SPR one partner is held on a chip, and binding of the other changes the refractive index at the surface.
The target of assay [2] is MC4R WT. In words: SPR; steady state affinity, 25 C.

As for SHU 9119, the results for the Kd in assay [1] and in assay [2] were 0.00837 nM and 5.74 nM, respectively.

Regarding Setmelanotide, the equilibrium dissociation constant (Kd) in assay [1] amounted to 35.3 nM; in assay [2], 9.72 nM.

Consider a-MSH, for which the dissociation constant (Kd) in assay [1] was found to be 155 nM; in assay [2], 313 nM.
